Data published in patent US20240059771A1 (SHANGHAI JUNSHI BIOSCIENCES, published 2024).

Assays:
human CLDN-18.2 [1] = biological target: T1, human CLDN-18.2 (human, UniProt P56856-2 1-261); experiment: flow cytometry (FACS) on NUGC4-CLDN-18.2 cells, fluorescent secondary antibody, MFI
T1 construct: whole, on cells
Excerpt: Fluorescent signal was detected by FACS; the stronger the detected fluorescent signal, the higher the antibody affinity, that is, the higher the target binding activity. Antibody binding curves were fitted by GraphPad (FIGS. 4a, 4b and 4c), and the positive and negative controls were IMAB362 and anti-KLH hu-IgG1 antibody, respectively.

human CLDN-18.2 [2] = biological target: T1, human CLDN-18.2; experiment: cell-based or functional assay
human CLDN-18.2 [3] = biological target: T1, human CLDN-18.2; experiment: flow cytometry on NUGC4-CLDN-18.2 cells, 4 C 30 min, fluorescent secondary antibody
Procedure: Finally, the fluorescence intensity was detected by BD CantoII flow cytometer. The stronger the fluorescent signal, the higher the affinity of the antibody to the target. The antibody dose-dependent binding curve was fitted by GraphPad (FIG. 1) and EC₅₀ was calculated (Table 3). The positive and negative controls were IMAB362 and anti-KLH hu-IgG1 antibody, respectively.

| EC50 (read off the curve) (human CLDN-18.2 [1]) | EC50 of ADCC effect (Jurkat ADCC NFAT luciferase reporter cells) (human CLDN-18.2 [2]) | EC50 (human CLDN-18.2 [3]) | EC50 of ADCC effect (Jurkat NFAT-Luc/FcγRIIIaR reporter cells) (human CLDN-18.2 [2]) | EC50 of CDC effect (complement serum, PI staining, flow cytometry) (human CLDN-18.2 [2]) | Binder | EC50 of CDC effect (complement serum, PI staining, relative killing rate) (human CLDN-18.2 [2]) | other results |
| --- | --- | --- | --- | --- | --- | --- | --- |
| – | 0.0142 µg/mL | – | – | – | humanized anti-CLDN-18.2 antibody JS012-Chi2-hu2-v3-2 (antibody, human IgG1, kappa, V domains shown) VH: EVQLVESGGGLVQPGGSLRLSCAASGFTLNNFGMHWVRQAPGKGLEWVSSISSGSGTIYYADSVKGRFTISRDNPKNSLYLQMNSLRAEDTAVYYCARAYYGNGFSFWGQGTLVTVSS VL: DIVMTQSPDSLAVSLGERATINCKSSQSLLNSGNQKNYLTWYQQKPGQPPKLLIYWASTRESGVPDRFSGSGSGTDFTLTISSLQAEDVAVYYCQNVYSYPLTFGQGTKLEIKR | 0.167 µg/mL | EC50 (human CLDN-18.2 [1]): 1.65 µg/mL |
| ~1 µg/mL | 0.0236 µg/mL | – | – | – | humanized anti-CLDN-18.2 antibody JS012-Chi9-hu7 (antibody, human IgG1, kappa, V domains shown) VH: QIQLVQSGSELKKPGESVKVSCKASGYTFTNYGMNWVRQAPGQGLEWMGWINTYTGESTYADGFTGRFVFSSDTSARTAYLQISSLKAEDTAVYFCATLGYGNSLAYWGQGTLVTVSS VL: DIVMTQSPDSLAVSLGERATINCKSSQSLLNSGNQRNYLTWYQQKPGQPPKLLIYWASTRESGVPDRFSGSGSGTDFTLTISSLQAEDVAVYYCQNNYFYPFTFGQGTKLEIKR | 0.086 µg/mL | – |
| ~5 µg/mL | 0.0742 µg/mL | – | – | – | humanized anti-CLDN-18.2 antibody JS012-Chi27-hu6-v3-2 (antibody, human IgG1, V domains shown) VH: EVQLVESGGGLVKPGGSLRLSCAASGFTFSSYGMSWVRQAPGKGLESVSTISGGDSYTYYPDSVRGRFTISRDIAKNSLYLQMNSLRAEDTAVYYCARSYNGNSLPYWGQGTLVTVSS VL: DIVMTQSPDSLAVSLGERATINCKSSQSLLNSGNQRNYLTWYQQKPGQPPKLLIYWASTRESGVPDRFSGSGSGTDFTLTISSLQAEDVAVYYCQNNYFYPFTFGQGTKLEIK | 0.715 µg/mL | – |

Continued, binder first:

| Binder | EC50 (read off the curve) (human CLDN-18.2 [1]) | EC50 of ADCC effect (Jurkat ADCC NFAT luciferase reporter cells) (human CLDN-18.2 [2]) | EC50 (human CLDN-18.2 [3]) | EC50 of ADCC effect (Jurkat NFAT-Luc/FcγRIIIaR reporter cells) (human CLDN-18.2 [2]) | EC50 of CDC effect (complement serum, PI staining, flow cytometry) (human CLDN-18.2 [2]) | EC50 of CDC effect (complement serum, PI staining, relative killing rate) (human CLDN-18.2 [2]) | other results |
| --- | --- | --- | --- | --- | --- | --- | --- |
| humanized anti-CLDN-18.2 antibody JS012-Chi9-hu7-v2 (antibody, human IgG1, kappa, V domains shown) VH: QVQLVQSGSELKKPGESVKVSCKASGYTFTNYGMNWVRQAPGQGLEWMGWINTYTGESTYADGFTGRFVFSMDTSASTAYLQISSLKAEDMAMYFCATLGYGNSLAYWGQGTLVTVSS VL: DIVMTQSPDSLAVSLGERATINCKSSQSLLNSGNQRNYLTWYQQKPGQPPKLLIYWASTRESGVPDRFSGSGSGTDFTLTISSLQAEDVAVYYCQNNYFYPFTFGQGTKLEIKR | ~1 µg/mL | 0.0225 µg/mL | – | – | – | 0.134 µg/mL | – |
| anti-CLDN-18.2 chimeric antibody Chi-JS012-2 (antibody, V domains shown, Fused to a human heavy chain constant region and a human kappa constant region cloned from human blood cells) VH: DVQLVESGGGLVQPGGSRKLSCAASGFTLNNFGMHWVRQAPEKGLEWVACISSGSGTIYYADTVKGRFTISRDNPKNTLFLQMTSLRSEDTAMYYCARAYYGNGFSFWGQGTLVTVSS VL: DIVMTQSPSSLTVTAGEKVTMSCKSSQSLLNSGNQKNYLTWYQQKPGQPPKLLIYWASTRESGVPDRFTGSGSGTDFTLTISSVQAEDLAIYYCQNVYSYPLTFGAGTKLEIK | – | – | 4.02 µg/mL | 0.0561 µg/mL | 0.461 µg/mL | – | – |
| anti-CLDN-18.2 chimeric antibody Chi-JS012-27 (antibody, V domains shown, Human heavy chain constant region and human kappa constant region) VH: EVKLVESGGGLVKPGGSLKLSCAASGFTFSSYGMSWVRQTPEKRLECVATISGGDSYTYYPDSVRGRFTISRDIAKNNLYLQMSSLRSEDTALYYCARSYNGNSLPYWGQGTLVTVSS VL: DIVMTQYPSFLTVTTGEKVTMSCKSSQSLLNSGNQRNYLTWYQQKPGQPPKLLIYWASTRESGVPDRFAGSGSGTDFTLTISSVQAEDLAIYYCQNNYFYPFTFGSGTKLEVK | – | – | 2.92 µg/mL | 0.0432 µg/mL | 0.265 µg/mL | – | – |
| anti-CLDN-18.2 chimeric antibody Chi-JS012-9 (antibody, V domains shown, Human heavy chain constant region and human kappa constant region) VH: QIQLVQSGPELKKPGETVKISCKASGYTFTNYGMNWVKQAPGKGLKWMGWINTYTGESTYADDFKGRFAFSSETSARTAYLQINNLKNEDMATYFCATLGYGNSLAYWGQGTLVTVSS VL: DIVMTQYPSFLTVTTGEKVTMSCKSSQSLLNSGNQRNYLTWYQQKPGQPPKLLIYWASTRESGVPDRFAGSGSGTDFTLTISSVQAEDLAIYYCQNNYFYPFTFGSGTKLEVK | – | – | 3.22 µg/mL | 0.0436 µg/mL | 0.316 µg/mL | – | – |
| anti-CLDN-18.2 chimeric antibody Chi-JS012-21 (antibody, V domains shown, Human heavy chain constant region and human kappa constant region) VH: QIQLVQSGPELKKPGETVKISCKASGYTFTNYGMNWVKQAPGKGLKWMGWINTYTGESTYADDFKGRFAFSSETSARTAYLQINNLKNEGMATYFCARSYNGNSLPYWGQGTLVTVSS VL: DIVMTQYPSFLTVTTGEKVTMSCKSSQSLLNSGNQRNYLTWYQQKPGQPPKLLIYWASTRESGVPDRFAGSGSGTDFTLTISSVQAEDLAIYYCQNNYFYPFTFGSGTKLEVK | – | – | 2.37 µg/mL | 0.0631 µg/mL | – | – | – |
| anti-CLDN-18.2 chimeric antibody Chi-JS012-10 (antibody, V domains shown, Human heavy chain constant region and human kappa constant region) VH: QIQLVQSGPELKKPGETVKISCKASGYTFTNYGMNWVKQAPGKGLKWMGWINTYTGESTYADDFKGRFAFSSETSARTAYLQINNLKNEDMATYFCATLGYGNSLAYWGQGTLVTVSS VL: DIVMTQSPSFLTVTAGEKVTMSCKSSQSLLNSGNQKNYLTWYQQKPGQPPKLLIYWASTRDSGVPDRFTGSGSGTDFTLTITSVQAEDLAVFYCQNAYFYPFTFGSGTKLEIK | – | – | 3.19 µg/mL | 0.0495 µg/mL | 0.358 µg/mL | – | – |
| humanized anti-CLDN-18.2 antibody JS012-Chi27-hu3-v2 (antibody, human IgG1, V domains shown) VH: EVQLVESGGGLVKPGGSLRLSCAASGFTFSSYGMSWVRQAPGKGLEWVSTISGGDSYTYYPDSVRGRFTISRDNAKNSLYLQMNSLRAEDTAVYYCARSYNGNSLPYWGQGTLVTVSS VL: DIVMTQSPDSLAVSLGERATINCKSSQSLLNSGNQRNYLTWYQQKPGQPPKLLIYWASTRESGVPDRFSGSGSGTDFTLTISSLQAEDVAVYYCQNNYFYPFTFGQGTKLEIK | ~1 µg/mL | 0.0358 µg/mL | – | – | – | 0.169 µg/mL | – |
| IMAB362 (antibody, V domains shown) VH: QVQLQQPGAELVRPGASVKLSCKASGYTFTSYWINWVKQRPGQGLEWIGNIYPSDSYTNYNQKFKDKATLTVDKSSSTAYMQLSSPTSEDSAVYYCTRSWRGNSFDYWGQGTTLTVSS VL: DIVMTQSPSSLTVTAGEKVTMSCKSSQSLLNSGNQKNYLTWYQQKPGQPPKLLIYWASTRESGVPDRFTGSGSGTDFTLTISSVQAEDLAVYYCQNDYSYPFTFGSGTKLEIKR | ~2 µg/mL | – | – | – | 0.354 µg/mL | – | EC50 (human CLDN-18.2 [1]): 1.39 µg/mL; EC50 of ADCC effect (Jurkat NFAT-Luc/FcγRIIIaR reporter cells), FIG. 2a (human CLDN-18.2 [2]): 0.036 µg/mL; EC50 of ADCC effect (Jurkat NFAT-Luc/FcγRIIIaR reporter cells), FIG. 2b (human CLDN-18.2 [2]): 0.0344 µg/mL |
